# Source: article PMC3524233, “Disulfide Bonds within the C2 Domain of RAGE Play Key Roles in Its Dimerization and Biogenesis” (PLoS ONE, 2012)
# What was measured:
# [1] = molecular target: the molecule itself; assay: non-reducing SDS-PAGE with immunoblot; membrane extracts of transfected CHO-CD14 cells; DTT omitted from the loading buffer, 2% LDS, 80°C for 10 min, NuPAGE 4-12% Bis-Tris gel
# [2] = molecular target: the molecule itself; assay: non-reducing SDS-PAGE with immunoblot; crude membrane fraction of mouse lung (homogenised with 20 mM N-ethylmaleimide), 15 µg, 4-12% gradient gel, reducing and non-reducing, IB with anti-RAGE; RAGE knockout lung as control
Protein,stoichiometry N [1],stoichiometry N [2]
"RAGE C2 domain-only fragment (residues 235-404) (domain or fragment, UniProt Q15109 235-404, looked up, RAGE C2 domain-only fragment, residues 235-404 (C2 domain with the transmembrane helix and the cytosolic portion); also called C2 fragment; source: CHO-CD14, transfected, expressed on the cell surface, in membrane extracts) LEEVQLVVEPEGGAVAPGGTVTLTCEVPAQPSPQIHWMKDGVPLPLPPSPVLILPEIGPQDQGTYSCVATHSSHGPQESRAVSISIIEPGEEGPTAGSVGGSGLGTLALALGILGGLGTAALLIGVILWQRRQRRGEERKAPENQEEEEERAELNQSEEPEAGESSTGGP",2,
"canonical full-length RAGE from mouse lung (receptor, mouse (endogenous in lung), UniProt Q62151 23-402, looked up, mouse RAGE, the canonical full-length isoform of lung tissue; source: endogenous, crude membrane fraction of wild-type (C57BL/6) mouse lung) GQNITARIGEPLVLSCKGAPKKPPQQLEWKLNTGRTEAWKVLSPQGGPWDSVARILPNGSLLLPATGIVDEGTFRCRATNRRGKEVKSNYRVRVYQIPGKPEIVDPASELTASVPNKVGTCVSEGSYPAGTLSWHLDGKLLIPDGKETLVKEETRRHPETGLFTLRSELTVIPTQGGTHPTFSCSFSLGLPRRRPLNTAPIQLRVREPGPPEGIQLLVEPEGGIVAPGGTVTLTCAISAQPPPQVHWIKDGAPLPLAPSPVLLLPEVGHEDEGTYSCVATHPSHGPQESPPVSIRVTETGDEGPAEGSVGESGLGTLALALGILGGLGVVALLVGAILWRKRQPRREERKAPESQEDEEERAELNQSEEAEMPENGAGGP",,2
